Measurements reported in the supplement of paper PMC9112550, “Optimization of the antimicrobial peptide Bac7 by deep mutational scanning” (BMC Biology, 2022).

Test system: Escherichia coli TOP10
Assay: shrunken log2 fold change of peptide-encoding DNA abundance (4.5 h post-induction vs induction); higher = less antimicrobial activity (less host growth inhibition)
Settings: time post-induction: 4.5 h; library: site-saturation at positions 5, 18, 19, 20
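Further: peptides expressed intracellularly from a pBAD plasmid library in pooled LB shake-flask culture, induced with 0.3% L-arabinose, DNA abundance read by NGS, three biological replicates, DESeq2 with apeglm shrinkage.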

Sequence	shrunken log2 fold change
RRIRGRPPRLPRPRPRPGWGPRP	0.73
RRIRDRPPRLPRPRPRPKYYPRP	-0.193
RRIRIRPPRLPRPRPRPNSYPRP	-0.084
RRIRMRPPRLPRPRPRPFSTPRP	-0.0159
RRIRQRPPRLPRPRPRPPGGPRP	0.448
RRIRNRPPRLPRPRPRPTIWPRP	-0.23
RRIRQRPPRLPRPRPRPKTMPRP	-0.0635
RRIRERPPRLPRPRPRPYRGPRP	-0.00417
RRIRYRPPRLPRPRPRPYHAPRP	-0.194
RRIRKRPPRLPRPRPRPIFQPRP	0.266
RRIRHRPPRLPRPRPRPENLPRP	-0.00992
RRIRERPPRLPRPRPRPCRVPRP	-0.25
RRIRIRPPRLPRPRPRPYMEPRP	-0.677
RRIRARPPRLPRPRPRPMIQPRP	0.0771
RRIRARPPRLPRPRPRPQCDPRP	0.0205
RRIRFRPPRLPRPRPRPTEPPRP	0.00236
RRIRCRPPRLPRPRPRPMKIPRP	0.13
RRIRKRPPRLPRPRPRPLTKPRP	0.457
RRIRIRPPRLPRPRPRPNMSPRP	-0.783
RRIRERPPRLPRPRPRPYTLPRP	-0.338
RRIRWRPPRLPRPRPRPCDMPRP	-0.173
RRIRSRPPRLPRPRPRPFHAPRP	0.042
RRIRRRPPRLPRPRPRPSQKPRP	-0.00949
RRIRARPPRLPRPRPRPWVLPRP	-0.0908
RRIRPRPPRLPRPRPRPNYEPRP	-0.442

Sequence	shrunken log2 fold change
RRIRTRPPRLPRPRPRPDNGPRP	-0.225
RRIRGRPPRLPRPRPRPVEVPRP	1.03
RRIRRRPPRLPRPRPRPPFFPRP	0.565
RRIRIRPPRLPRPRPRPQFWPRP	0.133
RRIRMRPPRLPRPRPRPIFLPRP	-0.227
RRIRLRPPRLPRPRPRPFFWPRP	0.296
RRIRRRPPRLPRPRPRPELKPRP	0.254
RRIRYRPPRLPRPRPRPQCGPRP	-0.46
RRIRGRPPRLPRPRPRPNTVPRP	-0.0703
RRIRGRPPRLPRPRPRPGWCPRP	0.484
RRIRYRPPRLPRPRPRPPMIPRP	-1.39
RRIRPRPPRLPRPRPRPMCIPRP	-0.0687
RRIRARPPRLPRPRPRPYPFPRP	-0.63
RRIRTRPPRLPRPRPRPPTFPRP	-0.203
RRIRPRPPRLPRPRPRPWANPRP	-0.0618
RRIRYRPPRLPRPRPRPDLFPRP	0.108
RRIRKRPPRLPRPRPRPWRGPRP	0.155
RRIRRRPPRLPRPRPRPMIIPRP	-0.171
RRIRRRPPRLPRPRPRPFDCPRP	0.264
RRIRWRPPRLPRPRPRPYHYPRP	0.0463
RRIRSRPPRLPRPRPRPAPDPRP	0.369
RRIRIRPPRLPRPRPRPCGPPRP	-0.138
RRIRQRPPRLPRPRPRPQCIPRP	-0.0582
RRIRDRPPRLPRPRPRPPHVPRP	0.0772
RRIRFRPPRLPRPRPRPNSSPRP	-0.247
